Measurements published in patent US20190248902A1 (published 2019).
Residue numbers refer to the chain shown, from its start.

B1: 179C2 (antibody, V domains shown)
VH: QVQLVESGGGVVQPGRSLRLSCAASGFTFSSYGMHWVRQAPGKGLEWVALIFYDGSNKYYADSVKGRFTISRDNSKNTLFLQMNSLRAEDTAVYYCARRYSGSWSGGMDVWGQGTTVTVSS
VL: DIVMTQTPLSLSVTPGQPASISCKSSQSLLHSEGKTYLYWYLQKPGQPPQLLIYEVSHRFSGVPDRFSGSGSGTDFTLKISRVEAEDVGVYYCMQSIQVLTFGGGTKVEIK
notes: hybridoma mAb
B2: 49C1 (antibody, V domains shown)
VH: B1 VH with A23T, L50V, F52W, F80Y, G102S
VL: DIVMTQTPLSLSVTPGQPASISCKSSQSLLHREGKTYLYWYLQKPGQAPQFLIFEVSHRFSGVPDRFSGSGSGTDFTLKISRVEAEDVGVYYCMQSIQIPITLGQGTRLEIK
notes: hybridoma mAb
B3: 65D5 (antibody, V domains shown)
VH: QVQLVQSGAEVKKPGASVKVSCKASGYTFPSYGISWVRQAPGQGLEWMGWISAYSGNTNYAQKLQGRVTMTTDTSTSTAYMELRSLRSDDTAVYFCARGEAVAVFDPWGQGTLVTVSS
VL: DIQMTQSPSSLSASVGDRVTITCRASQDINNYLAWFQQKPGKAPRSLIYAASSLHSGVPSQFSASGSGSDFTLTISSLQPEDFATYYCPLYKSYPLTFGPGTKVDIK
notes: hybridoma mAb
B4: 66H11 (antibody, V domains shown)
VH: B3 VH with P30A, S31T, S55N, F95Y
VL: DIQMTQFPSSLFAFVGDRVTITCPASQGISNYLAWFQQKPGKAPKSLIYGAFNLHSGVPSKFSGSGFGTDFTLTINSLQPEDFANYYCQQYSCYPFTFGHGTKVDIK
notes: hybridoma mAb
B5: 190E6 (antibody, V domains shown)
VH: QVQLVESGGGVVQPGRSLRLSCAASGFTFSSYGMHWVRQAPGKGLEWVAVIWYDGSNKNYADSVKGRFTISRDNSKNTLYLQMNSLRAEDTAVYYCARDQGVGYDGLDVWGQGTTVTVSS
VL: DIQMTQSPSSLSASVGDRVTITCRTSQGIGNYLAWFQQKPGKAPKSLLYKASSLQSGVPSKFSGSGSGTDFTLTISSLQPEDFATYYCQQYMTYPLTFGGGTKVEIK
notes: hybridoma mAb
B6: 192G8 (antibody, V domains shown)
VH: B5 VH
VL: B5 VL with M92I
notes: hybridoma mAb
B7: 191A10 (antibody, V domains shown)
VH: B5 VH with V93M, T115S
VL: B5 VL with T25A, N31K, L48I, K50A, S67Y, D82N, T85I, M92S
notes: hybridoma mAb
B8: 191G10 (antibody, V domains shown)
VH: B5 VH
VL: B5 VL with N31K, A51V
notes: hybridoma mAb
B9: 190G11 (antibody, V domains shown)
VH: B5 VH with S31I
VL: B5 VL
notes: hybridoma mAb
B10: 194C1 (antibody, V domains shown)
VH: B5 VH with K58E, N59H, D99N, Q100R, D105Y
VL: B5 VL with T25A, G30S, L48I, K50A, Q89L, Q90H, M92L
notes: hybridoma mAb
B11: 191G1 (antibody, V domains shown)
VH: B5 VH with K58E, N59H, Q100R, D105Y
VL: B5 VL with T25A, G30S, L48I, K50A, Q90H, M92L
notes: hybridoma mAb
B12: 191G12 (antibody, V domains shown)
VH: B5 VH
VL: B5 VL with M92I, T102S
notes: hybridoma mAb
B13: 192C8 (antibody, V domains shown)
VH: B5 VH with K58E, N59H, T69M, Q100R, D105Y, L107M
VL: B5 VL with T25A, G30S, L48I, K50A, Q90H, M92L
notes: hybridoma mAb
B14: 192H10 (antibody, V domains shown)
VH: B5 VH with V93M, T115S
VL: B5 VL with T25A, N31K, L48I, K50A, S67Y, D82N, M92S
notes: hybridoma mAb
B15: 190F8 (antibody, V domains shown)
VH: B5 VH with S31T
VL: B5 VL
notes: hybridoma mAb
B16: 193C7 (antibody, V domains shown)
VH: B5 VH with V93M, T115S
VL: B5 VL with T25A, N31K, L48I, K50A, M92S
notes: hybridoma mAb
B17: 190C11 (antibody, V domains shown)
VH: B5 VH
VL: B5 VL with A51T
notes: hybridoma mAb
B18: 192G6 (antibody, V domains shown)
VH: B5 VH with I51L, S56T
VL: B5 VL with Q3K
notes: hybridoma mAb
B19: 191E10 (antibody, V domains shown)
VH: B5 VH with V93M, T115S
VL: B5 VL with T25A, N31K, L48I, K50A, D82N, M92S
notes: hybridoma mAb
B20: 73G1 (antibody, V domains shown)
VH: QVQLVESGGGVVQPGRSLRLSCAGTGFTFSYYGMHWVRQAPGKGLEWVAVTTYDGSNKYYADSVKGRFTSSRDNSKNTLYLQMNSLRAEDTAVYHCARETGTWAFDIWGQGTMVTVSL
VL: QTVVTQEPSFSVSPGGTVTLTCGLSSGSVSTSYYPSWYQQTPGQAPRTLIYNTNTRSSGVPDRFSGSILGNKAALTITGAQADDESDYYCVLYMGSAIWVFGGGTKLTVL
notes: hybridoma mAb
B21: 51E3 (antibody, V domains shown)
VH: QVQLVQSGAEVKKPGASVKVSCKASGYTFNSYGISWVRLAPGQGLEWMGWISAYNGNTKNAQRFQGRVTMTTDTSTSTAYMELRSLRSDDTAVYYCARHDFWSGYYKGMDVWGQGTTVTVSS
VL: not shown
notes: hybridoma mAb
B22: 53E8 (antibody, V domains shown)
VH: B21 VH with L39Q, N60F, R63K, F64L
VL: not shown
notes: hybridoma mAb
B23: 56E3 (antibody, V domains shown)
VH: B21 VH with I34F, L39Q, N60E, R63K, S88A
VL: not shown
notes: hybridoma mAb
B24: 54E9 (antibody, V domains shown)
VH: B21 VH with R63K, F64L
VL: not shown
notes: hybridoma mAb

Target: T1, recombinant, soluble human ASGR-1 (human, UniProt P07306 62-291)
T1 construct: biotinylated in the binning assay; also called soluble huASGR-1; Soluble ASGR-1 (Amgen)
T1 sequence: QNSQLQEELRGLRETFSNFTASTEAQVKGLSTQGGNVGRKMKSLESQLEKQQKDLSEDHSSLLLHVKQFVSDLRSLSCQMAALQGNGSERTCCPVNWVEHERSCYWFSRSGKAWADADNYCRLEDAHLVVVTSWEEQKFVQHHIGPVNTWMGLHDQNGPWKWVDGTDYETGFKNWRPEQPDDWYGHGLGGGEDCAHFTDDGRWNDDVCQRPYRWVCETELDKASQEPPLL
Test: Octet BLI dissociation, pH 5.6 minus calcium
How it was run: (§1)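 Antibodies were captured on anti-human Fc biosensors, and soluble ASGR-1 (6 ug/ml) was associated for 2 min in Tris buffer containing 1 mM CaCl2 at pH 7.4, followed by 10 min dissociation under each test condition. The signal at the end of association was set as 100%. Percent ASGR-1 still bound after 1 min of dissociation was compared with the pH 7.4 plus calcium control, and >10% extra dissociation was scored as sensitive.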

In order of falling “% Change Compared to pH 7.4 + Calcium” value:
1. B24  75%
2. B2  64%
3. B22  64%
4. B20  62%
5. B3  61%
6. B4  52%
7. B1  45%
8. B21  42%
9. B23  16%
10. B14  -4%
11. B7  -5%
12. B8  -5%
13. B9  -5%
14. B15  -5%
15. B5  -6%
16. B6  -6%
17. B12  -6%
18. B17  -6%
19. B18  -6%
20. B10  -8%
21. B16  -8%
22. B19  -9%
23. B11  -11%
24. B13  -14%

Target: T1, recombinant, soluble human ASGR-1
Test: Octet BLI dissociation, pH 5.6 plus calcium
How it was run: as §1

In order of rising “% Change Compared to pH 7.4 + Calcium” value:
1. B11  -15%
2. B13  -14%
3. B5  -12%
4. B10  -12%
5. B19  -9%
6. B9  -8%
7. B16  -8%
8. B17  -6%
9. B18  -6%
10. B6  -5%
11. B7  -5%
12. B8  -5%
13. B12  -5%
14. B14  -5%
15. B15  -5%
16. B1  0%
17. B3  7%
18. B21  16%
19. B22  20%
20. B23  21%
21. B2  23%
22. B24  24%
23. B20  33%
24. B4  36%

Target: T1, recombinant, soluble human ASGR-1
Test: Octet BLI dissociation, pH 7.4 minus calcium
How it was run: as §1

In order of falling “% Change Compared to pH 7.4 + Calcium” value:
1. B20  100%
2. B4  81%
3. B24  79%
4. B23  75%
5. B2  72%
6. B22  68%
7. B21  65%
8. B3  34%
9. B1  25%
10. B7  0%
11. B8  0%
12. B14  0%
13. B5  -1%
14. B6  -1%
15. B15  -1%
16. B16  -1%
17. B17  -1%
18. B18  -1%
19. B19  -1%
20. B9  -2%
21. B12  -2%
22. B10  -7%
23. B13  -9%
24. B11  -10%
